# How the values were obtained:
# Assay type in all cases: cell-based, human
# [1] = test system: wild-type and variant SNAP-GIPR; experiment: Surface SNAP-GIPR expression (SNAP-tag labelling) in AD293 cells; details: for AD293 Surface: Fig S3E, mean; for Surface SNAP-GIPR expression: sheet Fig 1C;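 for all read-outs here: scaled to the experimental average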
# Summary of the method: (§1)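 Surface GIPR is quantified from wide-field images after labelling intact transfected cells with a membrane-impermeant SNAP probe at 500 nM for 10 min at room temperature. Specific signal, corrected for nontransfected cells, is normalized to the experiment-wide average or to wild-type.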
# [2] = test system: wild-type and variant SNAP-GIPR; experiment: Surface SNAP-GIPR expression (SNAP-tag labelling) in INS-1 cells; details: Fig 4G; Mean
# Summary of the method: as §1
# [3] = test system: wild-type and variant SNAP-GIPR; experiment: Single-concentration GIP cAMP response by HTRF in AD293 cells; details: Fig S3F, HTRF, mean;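 note: ratio to experiment-wide average response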
# Procedure: (§2) All variants were tested in parallel on each occasion to control for transfection efficiency differences between experiments.
# [4] = test system: wild-type and variant SNAP-GIPR; experiment: Single-concentration GIP cAMP response by HTRF in INS-1 cells; details: Fig S3E, mean
# Procedure: as §2
# [5] = test system: wild-type and variant SNAP-GIPR; experiment: cADDis cAMP imaging in AD293 cells, ensemble, expression-matched and per decile; details: Fig S3F, cADDis, mean
# Summary of the method: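 Transient SNAP-GIPR plus cADDis BacMam in AD293; 24 h; SNAP-Surface AF647 500 nM, 10 min RT; wide-field 10X imaging at 37°C in KRBH/6 mM glucose/0.1% BSA. Cells failing IBMX/FSK response criteria excluded.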
# [6] = test system: wild-type and variant SNAP-GIPR; experiment: Constitutive and agonist-mediated internalization, reversible SNAP-tag labelling, AD293 cells; set-up: key to Internalisation, Vehicle / Internalisation, +GIP / Internalisation, GIP-only: % internalization: residual fluorescence after Mesna vs pre-Mesna; Surface expression: unit not given here; details: Mean; for +GIP internalisation (100 nM) / GIP-specific internalisation (100 nM) / Constitutive internalisation (100 nM) / Surface expression: Fig 4E; for +GIP internalisation (100 nM) / GIP-specific internalisation (100 nM): GIP 100 nM; for Internalisation, +GIP / Internalisation, GIP-only / Internalisation, Vehicle: Fig S4C, AD293
# Summary of the method: (§3)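 Surface SNAP-GIPR signal removable by Mesna was tracked by imaging before and 10 min after treatment in pH 8.6 TNE buffer. Internalization is the Mesna-resistant share of specific fluorescence.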
# [7] = test system: wild-type and variant SNAP-GIPR; experiment: Constitutive and agonist-mediated internalization, reversible SNAP-tag labelling, INS-1 cells; set-up: key to Internalisation, GIP-only / Internalisation, Vehicle / Internalisation, +GIP: % internalization: residual fluorescence after Mesna vs pre-Mesna; details: Mean; for +GIP internalisation (100 nM) / GIP-specific internalisation (100 nM) / Constitutive internalisation (100 nM): Fig 4G; for +GIP internalisation (100 nM) / GIP-specific internalisation (100 nM): GIP 100 nM; for Internalisation, +GIP / Internalisation, GIP-only / Internalisation, Vehicle: Fig S4C, INS-1
# Summary of the method: as §3
# [8] = column repeated, paired with cAMP 100 nM
molecule,measurement,setting,value
"S415G (protein, UniProt P48546 22-466, looked up, variant S415G) Gastric inhibitory …: RAETGSKGQTAGELYQRWERYRRECQETLAAAEPPSGLACNGSFDMYVCWDYAAPNATARASCPWYLPWHHHVAAGFVLRQCGSDGQWGLWRDHTQCENPEKNEAFLDQRLILERLQVMYTVGYSLSLATLLLALLILSLFRRLHCTRNYIHINLFTSFMLRAAAILSRDRLLPRPGPYLGDQALALWNQALAACRTAQIVTQYCVGANYTWLLVEGVYLHSLLVLVGGSEEGHFRYYLLLGWGAPALFVIPWVIVRYLYENTQCWERNEVKAIWWIIRTPILMTILINFLIFIRILGILLSKLRTRQMRCRDYRLRLARSTLTLVPLLGVHEVVFAPVTEEQARGALRFAKLGFEIFLSSFQGFLVSVLYCFINKEVQSEIRRGWHHCRLRRGLGEEQRQLPERAFRALPSGSGPGEVPTSRGLSSGTLPGPGNEASRELESYC",AD293 Surface,[1]; [8],1.467
same,AD293 Surface,[1]; paired with cAMP 100 pM,1.467
same,Surface SNAP-GIPR expression,[1]; replicate 1,1.506
same,Surface SNAP-GIPR expression,[1]; replicate 2,0.2667
same,Surface SNAP-GIPR expression,[1]; replicate 3,1.585
same,Surface SNAP-GIPR expression,[1]; replicate 4,2.194
same,Surface SNAP-GIPR expression,[1]; replicate 5,1.195
same,Surface SNAP-GIPR expression,[1]; replicate 6,1.281
same,Surface SNAP-GIPR expression,[1]; replicate 7,1.352
same,Surface SNAP-GIPR expression,[1]; replicate 8,1.443
same,Surface SNAP-GIPR expression,[1]; replicate 9,1.419
same,Surface SNAP-GIPR expression,[1]; replicate 10,1.583
same,Surface SNAP-GIPR expression,[1]; replicate 11,1.553
same,Surface SNAP-GIPR expression,[1]; replicate 12,1.476
same,Surface SNAP-GIPR expression,[1]; replicate 13,2.028
same,Surface SNAP-GIPR expression,[1]; replicate 14,1.05
same,Surface SNAP-GIPR expression,[1]; replicate 15,1.445
same,Surface SNAP-GIPR expression,[1]; replicate 16,1.582
same,Surface SNAP-GIPR expression,[1]; replicate 17,1.552
same,Surface SNAP-GIPR expression,[1]; replicate 18,1.539
same,Surface SNAP-GIPR expression,[1]; replicate 19,1.754
same,Surface SNAP-GIPR expression,[1]; replicate 20,1.368
same,Surface SNAP-GIPR expression,[1]; replicate 21,1.348
same,Surface SNAP-GIPR expression,[1]; replicate 22,1.435
same,Surface SNAP-GIPR expression,[1]; replicate 23,1.476
same,Surface SNAP-GIPR expression,[1]; replicate 24,1.595
same,Surface SNAP-GIPR expression,[1]; replicate 25,1.677
same,Surface SNAP-GIPR expression,[1]; replicate 26,1.136
same,Surface SNAP-GIPR expression,[1]; replicate 27,1.395
same,Surface SNAP-GIPR expression,[1]; replicate 28,1.292
same,Surface SNAP-GIPR expression,[1]; replicate 29,1.605
same,Surface SNAP-GIPR expression,[1]; replicate 30,1.394
same,Surface SNAP-GIPR expression,[1]; replicate 31,1.688
same,Surface SNAP-GIPR expression,[1]; replicate 32,1.36
same,Surface SNAP-GIPR expression,[1]; replicate 33,1.647
same,Surface SNAP-GIPR expression,[1]; replicate 34,1.582
same,Surface SNAP-GIPR expression,[1]; replicate 35,1.005
same,Surface SNAP-GIPR expression,[1]; replicate 36,1.822
same,Surface SNAP-GIPR expression,[1]; replicate 37,1.489
same,Surface SNAP-GIPR expression,[1]; replicate 38,1.364
same,Surface SNAP-GIPR expression,[1]; replicate 39,0.9756
same,Surface SNAP-GIPR expression,[1]; replicate 40,1.792
same,Surface SNAP-GIPR expression,[1]; replicate 41,1.893
same,Surface expression,[2],1.381
same,AD293 100 pM HTRF,[3],1.117
same,AD293 100 nM HTRF,[3],1.323
same,INS-1 cAMP (100 nM),[4],1.389
same,AD293 100 pM cADDis,[5],34.3916
same,AD293 100 nM cADDis,[5],37.46
same,+GIP internalisation (100 nM),[6],0.8449
same,GIP-specific internalisation (100 nM),[6],0.2187
same,Constitutive internalisation (100 nM),[6],0.6262
same,Surface expression,[6],1.57
same,"Internalisation, +GIP",[6],54.2947
same,"Internalisation, GIP-only",[6],14.1911
same,"Internalisation, Vehicle",[6],40.1036
same,+GIP internalisation (100 nM),[7],0.6865
same,GIP-specific internalisation (100 nM),[7],0.178
same,Constitutive internalisation (100 nM),[7],0.5085
same,"Internalisation, +GIP",[7],49.94
same,"Internalisation, GIP-only",[7],12.7417
same,"Internalisation, Vehicle",[7],37.1983
"S415I (protein, UniProt P48546 22-466, looked up, variant S415I) Gastric inhibitory …: RAETGSKGQTAGELYQRWERYRRECQETLAAAEPPSGLACNGSFDMYVCWDYAAPNATARASCPWYLPWHHHVAAGFVLRQCGSDGQWGLWRDHTQCENPEKNEAFLDQRLILERLQVMYTVGYSLSLATLLLALLILSLFRRLHCTRNYIHINLFTSFMLRAAAILSRDRLLPRPGPYLGDQALALWNQALAACRTAQIVTQYCVGANYTWLLVEGVYLHSLLVLVGGSEEGHFRYYLLLGWGAPALFVIPWVIVRYLYENTQCWERNEVKAIWWIIRTPILMTILINFLIFIRILGILLSKLRTRQMRCRDYRLRLARSTLTLVPLLGVHEVVFAPVTEEQARGALRFAKLGFEIFLSSFQGFLVSVLYCFINKEVQSEIRRGWHHCRLRRILGEEQRQLPERAFRALPSGSGPGEVPTSRGLSSGTLPGPGNEASRELESYC",AD293 Surface,[1]; [8],1.415
same,AD293 Surface,[1]; paired with cAMP 100 pM,1.415
same,Surface SNAP-GIPR expression,[1]; replicate 1,1.538
same,Surface SNAP-GIPR expression,[1]; replicate 2,1.541
same,Surface SNAP-GIPR expression,[1]; replicate 3,0.8191
same,Surface SNAP-GIPR expression,[1]; replicate 4,0.7376
same,Surface SNAP-GIPR expression,[1]; replicate 5,1.239
same,Surface SNAP-GIPR expression,[1]; replicate 6,0.9541
same,Surface SNAP-GIPR expression,[1]; replicate 7,1.285
same,Surface SNAP-GIPR expression,[1]; replicate 8,1.716
same,Surface SNAP-GIPR expression,[1]; replicate 9,1.542
same,Surface SNAP-GIPR expression,[1]; replicate 10,1.528
same,Surface SNAP-GIPR expression,[1]; replicate 11,1.71
same,Surface SNAP-GIPR expression,[1]; replicate 12,1.642
same,Surface SNAP-GIPR expression,[1]; replicate 13,1.407
same,Surface SNAP-GIPR expression,[1]; replicate 14,1.415
same,Surface SNAP-GIPR expression,[1]; replicate 15,1.606
same,Surface SNAP-GIPR expression,[1]; replicate 16,1.78
same,Surface SNAP-GIPR expression,[1]; replicate 17,1.435
same,Surface SNAP-GIPR expression,[1]; replicate 18,1.518
same,Surface SNAP-GIPR expression,[1]; replicate 19,1.637
same,Surface SNAP-GIPR expression,[1]; replicate 20,1.459
same,Surface SNAP-GIPR expression,[1]; replicate 21,1.421
same,Surface SNAP-GIPR expression,[1]; replicate 22,1.515
same,Surface SNAP-GIPR expression,[1]; replicate 23,1.665
same,Surface SNAP-GIPR expression,[1]; replicate 24,1.354
same,Surface SNAP-GIPR expression,[1]; replicate 25,1.699
same,Surface SNAP-GIPR expression,[1]; replicate 26,1.338
same,Surface SNAP-GIPR expression,[1]; replicate 27,1.389
same,Surface SNAP-GIPR expression,[1]; replicate 28,1.441
same,Surface SNAP-GIPR expression,[1]; replicate 29,1.484
same,Surface SNAP-GIPR expression,[1]; replicate 30,1.535
same,Surface SNAP-GIPR expression,[1]; replicate 31,1.596
same,Surface SNAP-GIPR expression,[1]; replicate 32,1.349
same,Surface SNAP-GIPR expression,[1]; replicate 33,1.554
same,Surface SNAP-GIPR expression,[1]; replicate 34,1.711
same,Surface SNAP-GIPR expression,[1]; replicate 35,1.113
same,Surface SNAP-GIPR expression,[1]; replicate 36,1.535
same,Surface SNAP-GIPR expression,[1]; replicate 37,1.264
same,Surface SNAP-GIPR expression,[1]; replicate 38,1.181
same,Surface SNAP-GIPR expression,[1]; replicate 39,0.9176
same,Surface SNAP-GIPR expression,[1]; replicate 40,1.301
same,Surface SNAP-GIPR expression,[1]; replicate 41,1.157
same,Surface expression,[2],1.368
same,AD293 100 pM HTRF,[3],1.488
same,AD293 100 nM HTRF,[3],1.113
same,INS-1 cAMP (100 nM),[4],1.251
same,AD293 100 pM cADDis,[5],31.0791
same,AD293 100 nM cADDis,[5],35.96
same,+GIP internalisation (100 nM),[6],0.7539
same,GIP-specific internalisation (100 nM),[6],0.1889
same,Constitutive internalisation (100 nM),[6],0.565
same,Surface expression,[6],1.257
same,"Internalisation, +GIP",[6],60.2605
same,"Internalisation, GIP-only",[6],14.9072
same,"Internalisation, Vehicle",[6],45.3533
same,+GIP internalisation (100 nM),[7],0.7564
same,GIP-specific internalisation (100 nM),[7],0.2171
same,Constitutive internalisation (100 nM),[7],0.5393
same,"Internalisation, +GIP",[7],53.8917
same,"Internalisation, GIP-only",[7],15.145
same,"Internalisation, Vehicle",[7],38.7467

# Reference: publication PMC13544220, “Glycemic and bodyweight effects of GIPR coding variation reflect differences in surface expression and intrinsic functional impairment” (Science Advances, 2026)
